# Source: the supplement of paper PMC10126150
# ± gives the standard deviation of the averaged measurements.
# Tested on: ATP
# Experiment: switch fluorescence ratio, 500 uM ATP over buffer (Cy3 cluster intensity, sum of 5 cycles each) (fold (ratio)); higher = stronger signal-on switching upon ATP binding; sequences stand for … in TCGTCGGCAGCGTCAGATGTGTATAAGAGACAGTTTTTTTTTTTTTTTTTTTTTTTTT…TC
# Conditions: aptamer strand: ATP DNA aptamer (quencher-CACCTGGGGGAGTATTGCGGAGGAAGG + anchor), 100 nM annealed; ATP concentration: 500 uM
# Outline: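 The quencher-labelled ATP aptamer, at 100 nM, was annealed to Cy3-labelled switching-strand clusters on a modified Illumina MiSeq flow-cell. The clusters were imaged in selection buffer, then after 15 min with 500 uM ATP at 22 °C, and this buffer/ATP cycle ran five times with NaOH stripping and re-annealing between runs. Per-cluster fluorescence ratios, summed target-cycle over summed buffer-cycle Cy3 intensity, were averaged per switch-domain sequence. Clusters outside 100-1000 RFU were excluded.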
# 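Further: ATP exposure 15 min at 22 °C before imaging.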
row,Sequence,switch fluorescence ratio
1,TAATGCGATT,1.04 ± 0.017
2,ACCATGTAAG,0.988 ± 0.035
3,AGGTACGTTT,1.03 ± 0.02
4,ATATTCGGAA,0.99369 ± 0.00071
5,ATTTTAAAGA,1.009 ± 0.0062
6,ACGGGCTAAC,1.09 ± 0.14
7,CACCGTGTGG,1.006 ± 0.0088
8,GCCGTGGGGC,0.997 ± 0.061
9,GCCGTCTAAG,0.993 ± 0.022
10,AGGATTATGT,1.01 ± 0.035
11,TTATCGGTGT,0.968 ± 0.038
12,TCTTTTCGTT,1 ± 0.011
13,TTTGAGGGCT,1.006 ± 0.0023
14,TACTAGACAG,1.028 ± 0.0016
15,TAATAAGAGA,0.985 ± 0.015
16,GGGGTTTTTT,0.986 ± 0.026
17,GCGGCCAGGG,1.23 ± 0.15
18,GTAGGGAGTT,0.977 ± 0.012
19,TTCATTTTG,1.01 ± 0.068
20,GTGGTGGTGG,0.996 ± 0.023
21,TGGTTAGTTG,0.994 ± 0.013
22,ACGTTAAAAT,1.05 ± 0.021
23,ATTCGCAGCA,1.22 ± 0.056
24,TGGATTTAGT,0.9825 ± 0.0084
25,TATGTTAAAG,0.996 ± 0.017

row,Sequence,switch fluorescence ratio
1,ATTCAATCCA,0.989 ± 0.012
2,CTGGGCACGT,0.997 ± 0.023
3,GAAAAATCGA,0.9882 ± 0.0056
4,TAGTTGATAA,0.996 ± 0.018
5,CAGTAATATT,1.06 ± 0.017
6,GGCCCTTTGG,0.984 ± 0.0082
7,TGCTGAAATG,1.03 ± 0.07
8,CAAAGGGCGG,0.9985 ± 0.0012
9,TGAAAATTCC,1.12 ± 0.073
10,AAGTTATGAG,1.01 ± 0.046
11,CACGGTTTGC,1.01 ± 0.021
12,AAGGGGTGGG,1.02 ± 0.032
13,GATGGTTTTT,1 ± 0.016
14,ATTGGGTGTT,1.02 ± 0.029
15,CAATTAGGTC,0.994 ± 0.024
16,GGGGTAATTC,1.06 ± 0.039
17,TTTAGTTGAG,0.971 ± 0.025
18,CCTCGGTAGG,1.02 ± 0.0051
19,AAAATGACGT,1.04 ± 0.049
20,GTGGATTGGT,0.974 ± 0.013
21,TTTCACACGG,1.04 ± 0.066
22,AGAAATTTGA,0.98 ± 0.013
23,AAGTGGTTGG,0.984 ± 0.024
24,CCAGTATGTT,0.993 ± 0.024
25,AGGTTTGCTC,1.01 ± 0.011

row,Sequence,switch fluorescence ratio
1,CAGTGTGGTC,0.979 ± 0.055
2,GGTCTAAATT,1 ± 0.039
3,GACGGGATCA,1.02 ± 0.033
4,GTTCTAGGAG,1 ± 0.019
5,CGTTATATAA,1.04 ± 0.014
6,TAGTTGAGTT,0.982 ± 0.029
7,GAGGGATCAG,0.994 ± 0.011
8,GGCATGTTAG,0.9847 ± 0.009
9,TTCAGAGTCA,0.985 ± 0.042
10,GGTGGGAAGA,1.02 ± 0.017
11,TGCAGGGCGA,1.004 ± 0.0097
12,GTGAGGGAGC,1.12 ± 0.27
13,AGAATGGTAT,1.07 ± 0.08
14,TTATCGAGGG,0.989 ± 0.03
15,GGCCTATTGG,0.998 ± 0.023
16,GTGGGATAAT,1.02 ± 0.021
17,CTTATTAGGT,0.985 ± 0.045
18,CTTTGGGCCC,0.98271 ± 0.0009
19,GACTCTAGGA,1.064 ± 0.0025
20,ATCGACTTTT,1.015 ± 0.003
21,TTTTTGTTAA,1.01 ± 0.013
22,GACGGGATAG,1.245 ± 0.0072
23,TTCGATGATA,1.07 ± 0.08
24,AAGGAAGGGG,1.14 ± 0.2
25,GTTATTTGGT,0.992 ± 0.04

row,Sequence,switch fluorescence ratio
1,AGGCGGCCTG,0.982 ± 0.016
2,CGTCAAGGTG,1.42 ± 0.24
3,ACTAGGTGTG,1.04 ± 0.013
4,GCTGGAATGG,1.06 ± 0.015
5,AGTTTTTCGT,1.01 ± 0.019
6,AGTTCAGAAC,0.9899 ± 0.0075
7,GGTTATGGCC,1.01 ± 0.031
8,TATTTGGATA,1.05 ± 0.1
9,ATGGTCAGAT,0.994 ± 0.027
10,GGAAATGGGG,0.987 ± 0.11
11,CATGATGTTG,0.975 ± 0.026
12,TGGGTATGGG,1.01 ± 0.037
13,AAGTGCTGGG,0.993 ± 0.034
14,TTGGCACCCG,1.04 ± 0.034
15,TAAACCGTGG,1.02 ± 0.024
16,CGGCGCCTGC,1.08 ± 0.039
17,GGGGGATGAA,0.991 ± 0.025
18,CCTATTGGGT,1.02 ± 0.013
19,TTCCGGCAAA,1.5 ± 0.7
20,GGGGTGGTTT,0.951 ± 0.037
21,ATGGAGCAGT,1.6 ± 0.019
22,TGGCAGTCTA,0.979 ± 0.018
23,TTTGAAGCTA,2.19 ± 1.9
24,ATAGGTCTCA,1 ± 0.013
25,AGAGGCTGAA,1 ± 0.012
